Results from patent US9180187B2, “Medicament for treating and/or preventing cancer” (TORAY INDUSTRIES, INC., priority 2010, dated 2015).

What was measured:
CAPRIN-1 protein = experiment: Flow cytometry: expression of CAPRIN-1 protein on the cell surface of MCF-7 treated with antitumor agents; format: cell-based, human; settings: 1 μg antibody
Description: The cancer cell line MCF-7 was treated with each antitumor agent at a 50% inhibitory concentration which was calculated in (1) above, and the expression behavior of a CAPRIN-1 protein on the cell surface was examined.
The expression behavior of the CAPRIN-1 protein on the surface of the above-treated MCF-7 human breast cancer cell was examined. The cell was prepared to a concentration of 1×10^5 cells/ml, and then cultured on a 6-well plate under conditions of 37° C. and 5% CO2 for 1 day. Next, the cell was treated with antitumor agents at the 50% inhibitory concentration calculated in (1) above, or with PBS(−) as a control, and then cultured under conditions of 37° C. and 5% CO2 for 2 days. […] After washing with PBS, fluorescence intensity was measured using a FACS caliber (Becton, Dickinson and Company). […] As a result, no significant difference in fluorescence intensity was observed regardless of treatment with an antitumor agent. Specifically, the fluorescence intensity obtained in the case of adding the anti-CAPRIN-1 antibody to MCF-7 not treated with any antitumor agent indicated 32% higher enhancement when compared with that in the case of adding the control antibody. […] Here, the percentage of enhancement in fluorescence intensity was represented by the percentage of increase in mean fluorescence intensity (MFI level) in each cell and calculated by the following formula. […]

[1] = test system: human breast cancer cell line MDA-MB-157; experiment: ADCC activity, chromium-51 release; format: cell-based; settings: 1 μg antibody, mouse lymphocytes 2×10^5 cells, 10^3 target cells, 4 hours
Description: The above-selected anti-CAPRIN-1 monoclonal antibodies #1 to #11 were evaluated for their cytotoxic activities against cancer cells (ADCC activity). Hybridomas producing the monoclonal antibodies #1 to #11 were each cultured using hybridoma SFM medium (Invitrogen). The thus obtained supernatant was purified using Hitrap ProteinA Sepharose FF (GE HealthCare), replaced with PBS(−), and then filtered through 0.22 μm filter (Millipore). The obtained filtrates were used as antibodies for assay. The human breast cancer cell line MDA-MB-157 (10^6 cells) was collected in a 50-ml centrifuge tube, to which 100 μCi chromium(Cr)-51 was then added, and incubated at 37° C. for 2 hours. Subsequently, the cells were washed 3 times with RPMI1640 medium containing 10% FBS, and then dispensed into each well of a 96-well V-bottom plate at 10^3 cells per well. The thus obtained cells are used as target cell. The above purified antibodies (1 μg each) were added to the cells. Separately, mouse lymphocytes separated from the mouse spleen were further added (2×10^5 cells) and then cultured under conditions of 37° C. and 5% CO2 for 4 hours. After culture, the amount of chromium(Cr)-51 released from cytotoxically impaired tumor cells in a culture supernatant was measured, so that the ADCC activity of each anti-CAPRIN-1 antibody against cancer cells was calculated. […] On the other hand, similar procedures were performed using the monoclonal antibodies (which were prepared in Example 2) reactive with the CAPRIN-1 protein itself, but not reactive with the surface of cancer cells, no cytotoxic activity was observed (see FIG. 1). […] Similarly, the anti-CAPRIN-1 antibodies were examined for ADCC activity against other human cancer cell lines including glioma cell lines (T98G and U373), lung cancer cell lines (A549 and QG56), renal cancer cell lines (Caki-1 and ACHN), a uterine cervix cancer cell line (SW756), a bladder cancer cell line (T24), an esophageal cancer cell line (KYSE180), gastric cancer cell lines (MNK28 and MNK45), a colorectal cancer cell line (SW480), a leukemia cell line (AML5), and a lymphoma cell line (Ramos).

B1: monoclonal antibody #9: mouse anti-CAPRIN-1 monoclonal antibody; heavy chain variable region SEQ ID NO: 103, light chain variable region SEQ ID NO: 107 (antibody, listed as Mus musculus, V domains shown)
VH: PRASLGVSETLLCTSGFTFTDYYMSWVRQPPGKALEWLGFIRNKANGYTTEYSASVKGRFTISRDNSQSILYLQMNTLRAEDSATYYCARANWAFDYWGQGTTVTVSSK
VL: SGDRVSLSCRASQSISNYLHWYQQKSHESPRLLIKYASQSISGIPSRFSGSGSGTDFTLSINSVETEDFGMYFCQQSNSWPYTFGGGTKLEIKQ
Q: Which results are given for B1?
A: percentage of enhancement in fluorescence intensity versus control antibody (CAPRIN-1 protein; MCF-7 not treated with any antitumor agent): 32%; percentage of enhancement in fluorescence intensity versus control antibody (CAPRIN-1 protein; MCF-7 treated with the antitumor agent at 50% inhibitory concentration for 2 days): 32%; ADCC activity (cytotoxic activity) against MDA-MB-157 [1]: 32.4%
